Test results reported in US20230265151A1, “GIP/GLP1 CO-AGONIST COMPOUNDS” (priority 2020, published 2023).
*1 amine or outer side, *2 acyl side, *3 side chain or, on linkers, in order; H or OH if unused. Where no end group is shown, it is not given here. Side-chain parts run from the residue outwards. [ ]: non-standard residue; d: D form. The star is where a group is joined. Decanoyl(10-(4-HOOC-PhO)) = O=C(O)c1ccc(OCCCCCCCCCC(=O)*)cc1; αMePhe(2-F) = C[C@](N)(Cc1ccccc1F)C(=O)O; γGlu = O=C(O)[C@H](CCC(=O)[*:2])N[*:1]; αMeY = C[C@](N)(Cc1ccc(O)cc1)C(=O)O; αMeL = CC(C)C[C@](C)(N)C(=O)O; Nle = CCCC[C@H](N)C(=O)O; Orn = NCCC[C@H](N)C(=O)O; AEEA = NCCOCCOCC(=O)O; Aib = CC(C)(N)C(=O)O

T1: human GIP receptor (human, UniProt P48546 22-466)
T1 sequence (looked up): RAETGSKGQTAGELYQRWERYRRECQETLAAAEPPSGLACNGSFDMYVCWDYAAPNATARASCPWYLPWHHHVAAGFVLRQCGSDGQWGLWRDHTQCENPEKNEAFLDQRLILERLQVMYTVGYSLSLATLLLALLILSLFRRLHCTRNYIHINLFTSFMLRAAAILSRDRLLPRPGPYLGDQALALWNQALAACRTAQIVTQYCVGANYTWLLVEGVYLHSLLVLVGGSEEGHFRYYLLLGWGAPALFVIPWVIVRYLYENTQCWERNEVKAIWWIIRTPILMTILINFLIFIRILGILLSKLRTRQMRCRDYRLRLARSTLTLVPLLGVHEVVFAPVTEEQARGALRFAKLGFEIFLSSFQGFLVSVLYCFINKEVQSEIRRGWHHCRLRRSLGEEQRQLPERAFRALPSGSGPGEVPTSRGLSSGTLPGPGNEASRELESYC


Legend:
Assay in all cases: cell-based or functional assay
[1] = target: human glucagon receptor (human, UniProt P47871 26-477)
[2] = target: human GLP-1 receptor (human, UniProt P43220 24-463)
[3] = target: T1, human GIP receptor

Binder	cAMP EC50 [1] [nM]	cAMP EC50 [2] [nM]	cAMP EC50 [3] [nM]
YXEGTXTSDXSIXLDXKAQXEFIXXLIKGGPSSGAPPPS (Aib2, αMeF(2F)6, Nle10, αMeL13, Orn16, Aib20, D-Glu24, αMeY25; K17 and K28: AEEA2-(γ-Glu)-(10-(4-carboxyphenoxy)decanoyl); C-terminal NH2) [Example 328]	> 9950	0.405	0.00973
YXEGTXTSDXSIXLDXIAQXKFIXXLIKGGPSSGAPPPS (Aib2, αMeF(2F)6, hTyr10, αMeL13, Orn16, Aib20, D-Glu24, αMeY25; K21 and K28: AEEA2-(γ-Glu)-(10-(4-carboxyphenoxy)decanoyl); C-terminal NH2) [Example 332]	> 9950	0.263	0.0109
YXEGTXTSDXSIXLDXKAQXEFIXXLIKGGPSSGAPPPS (Aib2, αMeF(2F)6, hTyr10, αMeL13, Orn16, Aib20, D-Glu24, αMeY25; K17 and K28: AEEA2-(γ-Glu)-CO-(CH2)10-CH3; C-terminal NH2) [Example 335]	> 9950	0.175	0.00871
Y[Aib]EGT[αMePhe(2-F)]TSD[Nle]SI[αMeL]LD[Orn]IAQ[Aib]K([AEEA-AEEA-γGlu-Decanoyl(10-(4-HOOC-PhO))])FI[dE][αMeY]LIK([AEEA-AEEA-γGlu-Decanoyl(10-(4-HOOC-PhO))])GGPSSGAPPPS-NH2 (N-terminus assumed; SMILES CCCC[C@H](NC(=O)[C@H](CC(=O)O)NC(=O)[C@H](CO)NC(=O)[C@@H](NC(=O)[C@](C)(Cc1ccccc1F)NC(=O)[C@@H](NC(=O)CNC(=O)[C@H](CCC(=O)O)NC(=O)C(C)(C)NC(=O)[C@@H](N)Cc1ccc(O)cc1)[C@@H](C)O)[C@@H](C)O)C(=O)N[C@@H](CO)C(=O)N[C@H](C(=O)N[C@@](C)(CC(C)C)C(=O)N[C@@H](CC(C)C)C(=O)N[C@@H](CC(=O)O)C(=O)N[C@@H](CCCN)C(=O)N[C@H](C(=O)N[C@@H](C)C(=O)N[C@@H](CCC(N)=O)C(=O)NC(C)(C)C(=O)N[C@@H](CCCCNC(=O)COCCOCCNC(=O)COCCOCCNC(=O)CC[C@H](NC(=O)CCCCCCCCCOc1ccc(C(=O)O)cc1)C(=O)O)C(=O)N[C@@H](Cc1ccccc1)C(=O)N[C@H](C(=O)N[C@H](CCC(=O)O)C(=O)N[C@@](C)(Cc1ccc(O)cc1)C(=O)N[C@@H](CC(C)C)C(=O)N[C@H](C(=O)N[C@@H](CCCCNC(=O)COCCOCCNC(=O)COCCOCCNC(=O)CC[C@H](NC(=O)CCCCCCCCCOc1ccc(C(=O)O)cc1)C(=O)O)C(=O)NCC(=O)NCC(=O)N1CCC[C@H]1C(=O)N[C@@H](CO)C(=O)N[C@@H](CO)C(=O)NCC(=O)N[C@@H](C)C(=O)N1CCC[C@H]1C(=O)N1CCC[C@H]1C(=O)N1CCC[C@H]1C(=O)N[C@@H](CO)C(N)=O)[C@@H](C)CC)[C@@H](C)CC)[C@@H](C)CC)[C@@H](C)CC) [Example 333]	> 9950	0.388	0.0062
